From paper PMC11087256, “Interferon-induced transmembrane protein-1 competitively blocks Ephrin receptor A2-mediated Epstein–Barr virus entry into epithelial cells” (Nature Microbiology, 2024)
Several values for one entry are separate records, joined by “and”; a condition that tells them apart may be missing. Identical values can stand only once.

What was measured:
GST-EphA2 [1] = target: T1, GST-EphA2 (UniProt P29317 24-976); experiment: ELISA; as the ELISA on GST-EphA2-coated plates, gH/gL or gB incubated in the presence of IFITM1 (concentration of IFITM1 not stated); settings: both partners purified
T1 construct: EphA2; The methods name both pGEX6p-1-GST/His and pET28a as the vector; also called glutathione S-transferase (GST)-EphA2

GST-EphA2 [2] = target: T1, GST-EphA2; experiment: ELISA; 200 ng GST-EphA2 coated on 96-well plates overnight at 4 °C, blocked with 5% BSA in PBS; gradient concentrations of 6×His proteins, 2 h at room temperature; anti-His or anti-GST antibody, HRP secondary, absorbance at 450 nm; settings: both partners purified

B1: 6×His-gB (natural protein)
chain: AQTPEQPAPPATTVQPTATRQQTSFPFRVCELSSHGDLFRFSSDIQCPSFGTRENHTEGLLMVFKDNIIPYSFKVRSYTKIVTNILIYNGWYADSVTNRHEEKFSVDSYETDQMDTIYQCYNAVKMTKDGLTRVYVDRDGVNITVNLKPTGGLANGVRRYASQTELYDAPGWLIWTYRTRTTVNCLITDMMAKSNSPFDFFVTTTGQTVEMSPFYDGKNKETFHERADSFHVRTNYKIVDYDNRGTNPQGERRAFLDKGTYTLSWKLENRTAYCPLQHWQTFDSTIATETGKSIHFVTDEGTSSFVTNTTVGIELPDAFKCIEEQVNKTMHEKYEAVQDRYTKGQEAITYFITSGGLLLAWLPLTPRSLATVKNLTELTTPTSSPPSSPSPPAPSAARGSTPAAVLRRRRRDAGNATTPVPPTAPGKSLGTLNNPATVQIQFAYDSLRRQINRMLGDLARAWCLEQKRQNMVLRELTKINPTTVMSSIYGKAVAAKRLGDVISVSQCVPVNQATVTLRKSMRVPGSETMCYSRPLVSFSFINDTKTYEGQLGTDNEIFLTKKMTEVCQATSQYYFQSGNEIHVYNDYHHFKTIELDGIATLQTFISLNTSLIENIDFASLELYSRDEQRASNVFDLEGIFREYNFQAQNIAGLRKDLDNAVSNGRNQFVDGLGELMDSLGSVGQSITNLVSTVGGLFSSLVSGFISFFKNPFGGMLILVLVAGVVILVISLTRRTRQMSQQPVQMLYPGIDELAQQHASGEGPGINPISKTELQAIMLALHEQNQEQKRAAQRAAGPSVASRALQAARDRFPGLRRRRYHDPETAAALLGEAETEF
EC50 with IFITM1 (GST-EphA2 [1]): 84.3 nM
EC50 (GST-EphA2 [2]): 41.7 nM and 39.6 nM
